By Kd is commonly meant a measure of binding affinity in units of concentration.

Here are results for 3 molecules from patent US20070196371A1 (ZymoGenetics, published 2007).

The target in assay [1] is T1, human IL-17RC (IL-17RCx1), full length on transfected cells (human, UniProt Q8NAC3 21-791).
T1 sequence: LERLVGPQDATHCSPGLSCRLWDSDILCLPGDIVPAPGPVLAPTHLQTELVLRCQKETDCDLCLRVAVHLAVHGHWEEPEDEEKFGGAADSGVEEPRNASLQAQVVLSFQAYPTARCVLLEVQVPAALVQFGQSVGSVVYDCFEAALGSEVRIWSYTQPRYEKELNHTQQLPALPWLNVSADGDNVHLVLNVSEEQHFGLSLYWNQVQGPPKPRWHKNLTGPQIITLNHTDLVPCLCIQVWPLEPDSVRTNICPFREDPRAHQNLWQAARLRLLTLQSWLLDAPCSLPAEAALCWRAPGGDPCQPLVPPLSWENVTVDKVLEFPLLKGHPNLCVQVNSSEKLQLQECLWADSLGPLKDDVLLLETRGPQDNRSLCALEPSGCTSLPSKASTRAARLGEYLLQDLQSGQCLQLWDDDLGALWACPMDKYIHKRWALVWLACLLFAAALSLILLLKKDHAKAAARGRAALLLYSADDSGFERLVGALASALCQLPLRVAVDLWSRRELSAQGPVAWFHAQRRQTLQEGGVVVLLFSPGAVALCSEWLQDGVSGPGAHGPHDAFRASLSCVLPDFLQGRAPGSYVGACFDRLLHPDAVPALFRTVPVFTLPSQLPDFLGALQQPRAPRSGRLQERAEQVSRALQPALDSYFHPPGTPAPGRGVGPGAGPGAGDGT
The experiment in a line: cell-based or functional assay.

Assay [2] concerns the target T2, human IL-17 receptor (IL-17R), on transfected cells (human, UniProt Q96F46 33-320).
T2 sequence: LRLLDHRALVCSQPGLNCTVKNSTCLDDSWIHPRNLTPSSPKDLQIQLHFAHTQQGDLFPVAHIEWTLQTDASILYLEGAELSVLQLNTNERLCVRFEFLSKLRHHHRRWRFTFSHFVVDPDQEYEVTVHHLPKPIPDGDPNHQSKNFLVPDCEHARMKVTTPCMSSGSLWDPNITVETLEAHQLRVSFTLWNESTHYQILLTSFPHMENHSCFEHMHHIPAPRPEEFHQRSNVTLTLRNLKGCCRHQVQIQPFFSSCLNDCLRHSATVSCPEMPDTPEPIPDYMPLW
Briefly: cell-based or functional assay.

For assay [3], the target named is T1, human IL-17RC (IL-17RCx1), full length …. The experiment in a line: saturation radioligand binding on BHK hIL-17RC cells, experiment 1; high affinity site of two-site fit. How it is done: (§1) Cold competitors were added in 100 fold molar excess. […] Wells were incubated on ice for 1-hour followed by two washes with PBS (Invitrogen 20012-027) and one wash with a high salt solution (1.5M NaCL, 50 mM HEPES pH 7.4). Wells were extracted with 500 ul of 0.8M NaOH for 30 min. at room temperature and counts per minute were measured in a gamma counter (Packard Cobra II A5005).
(§2) Transfected BHK cells were plated into 24-well dishes as in one. […] Separately, 100 fold molar excess of cold ligand was added at each dilution point. Cells were washed, extracted and counted as in one. Specific counts per minute were plotted against concentration of radiolabeled ligand added by subtracting the 100 fold excess counts from the uncompleted counts at each dilution point. These normalized data were plotted to generate saturation binding curves for each combination of radiolabeled ligand and transfected BHK cells.

Assay [4] has the same target. Briefly: saturation radioligand binding on BHK hIL-17RC cells, experiment 2; high affinity site of two-site fit. As to the method: as §1, §2
The target is the same in assay [5]. The experiment in a line: radioligand competition, 100x molar cold competitor, BHK hIL-17RC cells. As to the method: as §1
Background: Displacement assays read how much labelled ligand stays bound in the presence of the test substance.

The target of assay [6] is T3, mouse IL-17RCx1, on transfected cells (mouse, UniProt Q8K4C2 22-698).
T3 construct: also called murine IL-17RCx1; IL-17RCx1 (mouse)
T3 sequence: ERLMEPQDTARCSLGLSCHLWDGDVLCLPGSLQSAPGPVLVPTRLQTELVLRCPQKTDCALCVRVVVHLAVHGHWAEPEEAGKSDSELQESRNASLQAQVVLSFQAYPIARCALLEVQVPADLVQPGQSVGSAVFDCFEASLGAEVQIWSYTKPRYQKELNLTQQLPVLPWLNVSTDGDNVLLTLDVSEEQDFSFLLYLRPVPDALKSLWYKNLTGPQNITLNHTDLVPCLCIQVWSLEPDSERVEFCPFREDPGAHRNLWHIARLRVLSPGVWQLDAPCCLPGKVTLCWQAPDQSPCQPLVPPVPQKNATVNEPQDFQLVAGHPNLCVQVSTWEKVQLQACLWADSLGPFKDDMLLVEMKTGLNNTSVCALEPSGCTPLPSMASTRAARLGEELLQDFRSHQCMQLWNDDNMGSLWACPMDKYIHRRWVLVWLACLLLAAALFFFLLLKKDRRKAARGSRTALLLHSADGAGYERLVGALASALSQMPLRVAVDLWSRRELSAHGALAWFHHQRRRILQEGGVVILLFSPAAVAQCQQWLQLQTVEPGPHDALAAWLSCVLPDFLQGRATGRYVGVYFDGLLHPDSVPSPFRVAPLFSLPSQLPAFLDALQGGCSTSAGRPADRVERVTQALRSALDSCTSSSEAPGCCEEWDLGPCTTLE
The experiment in a line: FACS, biotinylated cytokine on transfected cells; (+) = significant increase in fluorescence. In general terms: A flow cytometer gives signals particle by particle.

Assay [7] has as its target T1, human IL-17RC (IL-17RCx1), full length …. Briefly: saturation radioligand binding on BHK hIL-17RC cells, experiment 3; high affinity site of two-site fit. As to the method: as §1, §2
The target of assay [8] is T4, human IL-17RCx4, on transfected 293T cells (human, UniProt Q8NAC3 21-791).
T4 construct: Splice variant that includes exons 7, 8 and 12
T4 sequence: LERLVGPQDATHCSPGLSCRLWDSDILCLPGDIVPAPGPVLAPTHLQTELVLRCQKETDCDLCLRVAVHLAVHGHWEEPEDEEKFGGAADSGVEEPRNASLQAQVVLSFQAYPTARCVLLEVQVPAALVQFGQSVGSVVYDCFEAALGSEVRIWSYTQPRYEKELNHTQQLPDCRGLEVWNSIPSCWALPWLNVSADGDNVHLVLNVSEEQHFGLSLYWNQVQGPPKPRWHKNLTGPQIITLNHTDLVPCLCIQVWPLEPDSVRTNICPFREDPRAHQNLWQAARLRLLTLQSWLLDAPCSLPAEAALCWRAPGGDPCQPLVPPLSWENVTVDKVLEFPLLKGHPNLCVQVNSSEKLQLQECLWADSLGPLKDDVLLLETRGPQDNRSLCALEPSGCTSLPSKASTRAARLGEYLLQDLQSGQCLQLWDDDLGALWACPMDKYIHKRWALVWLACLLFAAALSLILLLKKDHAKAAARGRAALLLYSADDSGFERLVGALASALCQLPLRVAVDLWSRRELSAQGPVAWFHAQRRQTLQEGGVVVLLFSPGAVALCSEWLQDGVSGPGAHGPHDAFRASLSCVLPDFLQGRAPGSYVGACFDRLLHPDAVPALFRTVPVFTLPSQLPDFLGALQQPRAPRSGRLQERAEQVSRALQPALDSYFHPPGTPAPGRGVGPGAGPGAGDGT
The experiment in a line: FACS, biotinylated cytokine on transiently transfected 293T cells; (-) = no significant change in fluorescence. The text has this:
(§3) Those chosen for this analysis also differed in their inclusion or exclusion of exon 7 and exon 12. These variants were designated human IL-17RCx1, IL-17RCx4, IL-17RCx2, and IL-17RCx7 and these are also illustrated in Table 6 below.

The target in assay [9] is T1, human IL-17RC (IL-17RCx1), full length …. The description is as above.
Text: as §3

The target in assay [10] is T3, mouse IL-17RCx1, on transfected cells. The experiment in a line: FACS, biotinylated cytokine on transfected cells; (-) = no significant change in fluorescence.
Assay [11] concerns the target T4, human IL-17RCx4, on transfected 293T …. Briefly: FACS, biotinylated cytokine on transiently transfected 293T cells; (+) = significant increase in fluorescence.

B1: human IL-17F (ligand)
chain: RKIPKVGHTFFQKPESCPPVPGGSMKLDIGIINENQRVSMSRNIESRSTSPWNYTVTWDPNRYPSEVVQAQCRNLGCINAQGKEDISMNSVPIQQETLVVRRKHQGCSVSFQLEKVLVTVGCTCVTPVIHHVQ
modifications: biotinylated (flow cytometry) or 125I-radiolabeled by the iodobead method (radioligand assays); unlabeled as cold competitor; expressed from cDNA in COS cells in the secretion trap
notes: also called huIL-17F; hIL-17F
On to B1, for which, in assay [1], the “EC50, ap1/nfkb luciferase in hIL-17RCX1 recombinant line” value was found to be 0.61 ng/mL. Besides, the “fold more potent EC50 in the recombinant line vs the parental line” value in [1] was 17 fold. The “EC50, ap1/nfkb luciferase in hIL-17RA recombinant line” value in [2] turned out to be 12.4 ng/mL. For the same molecule, the results for the Kd in assay [3], in assay [4] and in [7] were 0.05 nM, 0.06 nM and 0.08 nM, respectively. For the same molecule, in assay [5], the “fold reduction of 125I IL-17A binding” value is around 7 fold. Further, the “fold reduction of 125I IL-17F binding” value in assay [5] was around 5 fold. Besides, the binding result in assay [6] is recorded as “binds”.

B2: mouse IL-17A (ligand)
chain: AAIIPQSSACPNTEAKDFLQNVKVNLKVFNSLGAKVSSRRPSDYLNRSTSPWTLHRNEDPDRYPSVIWEAQCRHQRCVNAEGKLDHHMNSVLIQQEILVLKREPESCPFTFRVEKMLVGVGCTCVASIVRQAA
modifications: biotinylated in Example 31
notes: also called murine IL-17A; mIL-17A
In the case of B2, the “EC50, ap1/nfkb luciferase in nih3t3/kz142.8/hcytor14x1 pool” value in [1] was around 4 ng/mL. Moreover, the binding result in assay [8], in assay [9] and in assay [10] was “no binding” in each case.

B3: mouse IL-17F (ligand)
chain: RKNPKAGVPALQKAGNCPPLEDNTVRVDIRIFNQNQGISVPREFQNRSSSPWDYNITRDPHRFPSEIAEAQCRHSGCINAQGQEDSTMNSVAIQQEILVLRREPQGCSNSFRLEKMLLKVGCTCVKPIVHQAA
modifications: biotinylated in Example 31
notes: also called murine IL-17F; MuIL-17F
Regarding B3, the values for the binding result in assay [9], in [10] and in [11] were “no binding”, “no binding” and “binds”, respectively.
